The source of these data is US20210101954A1 (EUREKA THERAPEUTICS, published 2021).

The target in this assay is T1, CD19 (human, UniProt P15391 20-556).
T1 construct: whole, on cells; also called CD19 on NALM6, Raji, K562-CD19 and K562-CD19/CD22 cells
T1 sequence (looked up): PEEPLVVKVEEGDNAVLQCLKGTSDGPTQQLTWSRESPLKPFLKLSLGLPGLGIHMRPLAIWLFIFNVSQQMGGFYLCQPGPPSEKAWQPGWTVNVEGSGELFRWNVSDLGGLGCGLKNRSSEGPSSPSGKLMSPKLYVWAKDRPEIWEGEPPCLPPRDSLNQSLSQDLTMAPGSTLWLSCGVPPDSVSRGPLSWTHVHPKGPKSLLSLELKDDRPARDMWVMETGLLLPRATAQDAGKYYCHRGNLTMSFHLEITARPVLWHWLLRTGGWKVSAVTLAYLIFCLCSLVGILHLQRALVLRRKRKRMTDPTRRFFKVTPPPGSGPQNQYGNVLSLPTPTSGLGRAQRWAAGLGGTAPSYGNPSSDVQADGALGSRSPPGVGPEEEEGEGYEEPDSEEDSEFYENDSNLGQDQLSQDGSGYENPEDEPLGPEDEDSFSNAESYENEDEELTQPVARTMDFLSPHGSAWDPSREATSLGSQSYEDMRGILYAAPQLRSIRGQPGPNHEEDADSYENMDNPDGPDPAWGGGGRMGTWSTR
Description: told from antigen-specific IFN-γ release of transduced T cells on CD19+ and/or CD22+ cell lines. The source says:
Primary T cells were mock-transduced or transduced with a lentiviral vector encoding the anti-CD19 anti-CD22 caTCR-7-2a construct. The transduced T cells were mixed with K562 (CD19 CD22 double negative), K562-CD22 (K562 transduced with CD22), K562-CD19 (K562 transduced with CD19), Raji (which expresses both CD19 and CD22), or Raji CD19 K/O (Raji with CD19 knocked out) cells at an effector-to-target ratio of 2.5:1. T-cells secrete IFN-γ when activated by TCR engagement with target ligand. The cytokine release levels of IFN-γ were measured and used as an indicator of the receptor's signaling potential (the higher levels, the higher the receptor's signaling potential and cytotoxic T cell activity). Cytokine concentrations were measured after 16 hours of co-culture using the Magpix multiplex system (Luminex) with the Bio-plex Pro Human Cytokine 8-plex Assay (BioRad).
T cells expressing the anti-CD19 anti-CD22 caTCR-7-2a construct specifically activated IFN-γ secretion when incubated with K562 expressing either CD19 or CD22 antigens. […] In vitro killing

B1: anti-CD19 anti-CD22 caTCR-7-2a (other)
chain 1: DIQLTQSPSSLSTSVGDRVTITCQASHDIRNYLNWYQQKPGKAPNLLIYAASNLQTGVPSRFSGRGSGTDFTLTISSLQPEDIATYYCQQYDGLPLTFGQGTRLEIKRGGGGSEVQLVQSGAEVKKPGESLKISCKGSGYSFTSYWIGWVRQMPGKGLEWMGIIYPGDSDTRYSPSFQGQVTISADKSISTAYLQWSSLKASDTAMYYCARQVWGWQGGMYPRSNWWYNLDSWGQGTLVTVSSASTKGPSVFPLAPSSKSTSGGTAALGCLVKDYFPEPVTVSWNSGALTSGVHTFPAVLQSSGLYSLSSVVTVPSSSLGTQTYICNVNHKPSNTKVDKRVEPKSCEVKTDSTDHVKPKETENTKQPSKSCHKPKAIVHTEKVNMMSLTVLGLRMLFAKTVAVNFLLTAKLFFL
chain 2: QVQLVESGGGLVQPGGSLRLSCAASGFTFSNYAMSWVRQAPGKGLEWVSSISGSGGSTYYADSVKGRFTISRDTSKNTLYLQMNSLRAEDTAVYYCARYGSAAWMDSWGQGTLVTVSSGGGGSLPVLTQPPSVSVAPGKTARITCGGNNIGSKSVHWYQQKPGQAPVLVVYDDSDRPSGIPERFSGSNSGNTATLTISRVEAGDEADYYCQVWDSSSDYVVFGGGTKLTVLGQPKANPTVTLFPPSSEELQANKATLVCLISDFYPGAVTVAWKADGSPVKAGVETTKPSKQSNNKYAASSYLSLTPEQWKSHRSYSCQVTHEGSTVEKTVAPTECSPIKTDVITMDPKDNCSKDANDTLLLQLTNTSAYYMYLLLLLKSVVYFAIITCCLLRRTAFCCNGEKS
notes: Bispecific chimeric antibody-TCR construct expressed on transduced primary T cells
For the molecule B1, the binding result is recorded as “binds”.
